Two molecules from publication PMC2893164, “Structural Basis of Gate-DNA Breakage and Resealing by Type II Topoisomerases” (PLoS ONE, 2010) can be followed below.

First the molecules themselves.
B1: S. pneumoniae ParC breakage-reunion domain (ParC55, residues 1-488) (domain or fragment, Streptococcus pneumoniae, UniProt P72525 1-488, looked up)
chain: MSNIQNMSLEDIMGERFGRYSKYIIQDRALPDIRDGLKPVQRRILYSMNKDSNTFDKSYRKSAKSVGNIMGNFHPHGDSSIYDAMVRMSQNWKNREILVEMHGNNGSMDGDPPAAMRYTEARLSEIAGYLLQDIEKKTVPFAWNFDDTEKEPTVLPAAFPNLLVNGSTGISAGYATDIPPHNLAEVIDAAVYMIDHPTAKIDKLMEFLPGPDFPTGAIIQGRDEIKKAYETGKGRVVVRSKTEIEKLKGGKEQIVIIEIPYEINKANLVKKIDDVRVNNKVAGIAEVRDESDRDGLRIAIELKKDANTELVLNYLFKYTDLQINYNFNMVAIDNFTPRQVGIVPILSSYIAHRREVILARSRFDKEKAEKRLHIVEGLIRVISILDEVIALIRASENKADAKENLKVSYDFTEEQAEAIVTLQLYRLTNTDVVVLQEEEAELREKIAMLAAIIGDERTMYNLMKKELREVKKKFATPRLSSLEDTAKA
modifications: Tyr 118 linked covalently to the 5' phosphate end of the cleaved DNA (in the cleaved complexes; not in the resealed complex)
notes: Topoisomerase IV subunit ParC, Streptococcus pneumoniae, breakage-reunion domain, residues 1-488; also called topoisomerase IV subunit ParC; source: E. coli, over-expressed, purified as described previously

Data set [1] concerns the molecule itself. The data set can be described thus: crystal structure; ParC55 and ParE30 (equimolar, 4 mg/ml) co-crystallised with the 34-bp E-site DNA (1:1:1.2) and quinazolinedione PD 0305970, 20 mM MgCl2, pH 7.0; 3.1 A; the same crystals back-soaked and soaked with levofloxacin (2.9 A), EDTA (3.3 A) or EDTA then Mg2+ (3.5 A).
The target in data set [2] is B1. The description is as above. The following applies: both partners purified.

Turning to B1, the “stoichiometry N” value in data set [1] is 2.

B2: S. pneumoniae ParE TOPRIM domain (ParE30, residues 404-647) (domain or fragment, Streptococcus pneumoniae, UniProt Q59961 404-647, looked up)
chain: KNKKDKGLLSGKLTPAQSKNPAKNELYLVEGDSAGGSAKQGRDRKFQAILPLRGKVVNTAKAKMADILKNEEINTMIYTIGAGVGADFSIEDANYDKIIIMTDADTDGAHIQTLLLTFFYRYMRPLVEAGHVYIALPPLYKMSKGKGKKEEVAYAWTDGELEELRKQFGKGATLQRYKGLGEMNADQLWETTMNPETRTLIRVTIEDLARAERRVNVLMGDKVEPRRKWIEDNVKFTLEETTVF
notes: Topoisomerase IV subunit ParE, Streptococcus pneumoniae, TOPRIM domain, residues 404-647; also called topoisomerase IV subunit ParE; source: E. coli, over-expressed, purified as described previously
As to B2, the binding result in data set [2] is reported as “binds”.
